# Values of other authors in article PMC6969543.
# Target: Glu325 (UniProt position 325, TLHMFEVPFLL)
# Assay: IR
substance,measurement,value
"Lactose permease (LacY), form used in earlier work (quoted values) (Escherichia coli)",pKa,10.5 ± 0.1
